Reference: publication PMC3042951 (The journal of physical chemistry. B, 2010)

Molecular target: the molecule itself
Experiment: cross-linking

B1: native human LysRS (70–584) T285C (enzyme)
chain: not shown
  stoichiometry N: 2
